Measurements published in article doi:10.1101/2025.06.12.659244 (bioRxiv, 2025).
Where a chain is given by its changes, count along the chain named. Names and notes keep the numbering of the source.

B1: St3Csn2^Y212R+I213R+M215R (Interface 1 mutant of St3Csn2) (natural protein, S. thermophilus DGCC 7710, UniProt G3ECR4 1-219, looked up)
chain: MKINFSLLDEPMEVNLGTVLVIEDVSVFAQLVKEFYQYDEQSNLTIFDSKIRSIRSSELLLITDILGYDINTSQVLKLLHTDIVSQLNDKPEVRSEIDSLVSLITDIIMAECIENELDIEYDEITLLELIKALGVRIETKSCTVFEKIFEILQIFKYLVKKRILVFVNSLSYFSKDEIYQILEYTKLSQADVLFLEPRQIEGIQQFILDKDRRLRPYNN
B2: St3Csn2 (accessory protein Csn2 of the S. thermophilus DGCC 7710 CRISPR3 system), homotetrameric ring (natural protein)
chain: B1 chain with R212Y, R213I, R215M
B3: St3 Cas1 (C-terminal StrepII-Tag), Cas1 homodimer of the St3 Cas1-Cas2 integrase (enzyme, S. thermophilus DGCC 7710)
chain: MAGWRTVVVNIHSKLSYKNNHLIFRNSYKTEMIHLSEIDILLLETTDIVLTTMLVKRLVDENILVIFCDDKRLPTAFLTPYYARHDSSLQIARQIAWKENVKCEVWTAIIAQKILNQSYYLGECSFFEKSQSIMELYHGLERFDPSNREGHSARIYFNTLFGNDFTRESDNDINAALDYGYTLLLSMFAREVVVCGCMTQIGLKHANQFNQFNLASDIMEPFRPIIDRIVYQNRHNNFVKIKKELFSIFSETYLYNGKEMYLSNIVSDYTKKVIKALNQLGEEIPEFRI
B4: St3 Cas1 (C-terminal HisTag), Cas1 homodimer of the St3 Cas1-Cas2 integrase (enzyme, S. thermophilus DGCC 7710)
chain: B3 chain
B5: St3 Cas2 (untagged), Cas2 homodimer of the St3 Cas1-Cas2 integrase (natural protein, S. thermophilus DGCC 7710)
chain: MSYRYMRMILMFDMPTDTAEERKAYRKFRKFLLSEGFIMHQFSVYSKLLLNHTANTAMVGRLKANNPKKGNITILTVTEKQFARMIYLYGDKNTSIANSEERLVFLGDNYCDED

Key:
cryo-EM structure [1] = biological target: the molecule itself; assay: cryo-EM structure
SEC-MALS = biological target: the molecule itself; assay: SEC-MALS
cryo-EM structure [2] = biological target: the molecule itself; assay: cryo-EM structure; remark: listed apart in the source

Row | Protein | stoichiometry N (cryo-EM structure [1]) | stoichiometry N (cryo-EM structure [2]) | also measured
1 | B1 | 4 | – | –
2 | B2 | – | – | stoichiometry N (SEC-MALS): 4
3 | B3 | – | 2 | –
4 | B4 | 2 | – | –
5 | B5 | – | 2 | –
